Measured values taken from PMC9780825 (2022).
No end group written: not given here.

Experiments:
[1] = biological target: T1, Kv1.3 (mKate2-tagged, K-ΔKv1.3) 53-C-terminus (deletion M1-D52) (Homo sapiens, UniProt P22001); experiment: fluorescent competitive binding assay (confocal, HEK293 cells)
[2] = biological target: Kv1.3 (mKate2-tagged, K-Kv1.3) (Homo sapiens, UniProt P22001); experiment: confocal fluorescence binding on HEK293 cells
[3] = biological target: T1, Kv1.3 (mKate2-tagged, K-ΔKv1.3) …; experiment: confocal fluorescence binding on HEK293 cells

T1 sequence (P22001 53-575, stated change not applied): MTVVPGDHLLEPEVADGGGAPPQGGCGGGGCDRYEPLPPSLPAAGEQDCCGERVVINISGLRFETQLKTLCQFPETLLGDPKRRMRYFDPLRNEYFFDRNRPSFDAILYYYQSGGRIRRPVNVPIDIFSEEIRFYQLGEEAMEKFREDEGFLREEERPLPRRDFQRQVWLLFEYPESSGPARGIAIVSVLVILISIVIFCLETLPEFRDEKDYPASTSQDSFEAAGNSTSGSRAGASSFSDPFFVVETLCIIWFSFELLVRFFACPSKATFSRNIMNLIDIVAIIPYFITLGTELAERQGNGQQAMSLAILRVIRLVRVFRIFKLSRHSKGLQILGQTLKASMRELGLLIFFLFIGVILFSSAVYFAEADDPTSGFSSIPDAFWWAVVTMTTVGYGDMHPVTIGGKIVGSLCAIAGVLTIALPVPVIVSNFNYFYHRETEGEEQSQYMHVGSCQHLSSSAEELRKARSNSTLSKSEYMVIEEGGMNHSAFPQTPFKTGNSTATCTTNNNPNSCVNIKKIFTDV
Chain of Kv1.3 (mKate2-tagged, K-Kv1.3) (P22001 whole entry): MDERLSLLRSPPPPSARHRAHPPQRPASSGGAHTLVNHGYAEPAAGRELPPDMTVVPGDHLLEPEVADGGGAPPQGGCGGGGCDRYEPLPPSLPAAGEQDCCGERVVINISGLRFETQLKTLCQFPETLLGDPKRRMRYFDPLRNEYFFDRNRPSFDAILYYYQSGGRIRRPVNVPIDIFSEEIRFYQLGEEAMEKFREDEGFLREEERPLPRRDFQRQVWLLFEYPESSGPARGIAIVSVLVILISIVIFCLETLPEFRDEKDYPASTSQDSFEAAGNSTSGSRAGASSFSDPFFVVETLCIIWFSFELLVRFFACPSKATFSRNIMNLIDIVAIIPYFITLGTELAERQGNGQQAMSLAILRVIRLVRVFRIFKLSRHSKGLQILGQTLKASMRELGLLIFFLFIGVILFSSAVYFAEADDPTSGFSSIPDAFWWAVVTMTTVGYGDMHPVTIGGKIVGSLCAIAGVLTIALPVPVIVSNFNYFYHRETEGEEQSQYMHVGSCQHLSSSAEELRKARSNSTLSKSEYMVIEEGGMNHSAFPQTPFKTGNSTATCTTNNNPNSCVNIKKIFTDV

| Binder | Ki [1] | Kd [2] | Kd [3] |
| --- | --- | --- | --- |
| TVIDVKCTSPKQCLPPCKAQFGIRAGAKCMNGKCKCYPH (ends and bridges not checked; cysteine pairing not given here) [Hongotoxin 1 (HgTx1)] | 0.2 nM | – | – |
| GVEINVKCSGSPQCLKPCKDAGMRFGKCMNRKCHCTPK (ends and bridges not checked; cysteine pairing not given here) [Kaliotoxin 1 (KTx1)] | 4 nM | – | – |
| GVPINVSCTGSPQCIKPCKDAGMRFGKCMNRKCHCTPK (ends and bridges not checked; cysteine pairing not given here) [Agitoxin 2 (AgTx2)] | 1.1 nM | – | – |
| Atto488-TVIDVKCTSPKQCLPPCKAQFGIRAGAKCMNGKCKCYPH (ends and bridges not checked) [Hongotoxin 1 (Atto488-labeled, A-HgTx)] | – | 0.3 nM | 0.48 nM |
